US20190338002A1 (Pieris, published 2019)
Where a chain is given by its changes, count along the chain named.

B1: lipocalin mutein SEQ ID NO: 25 (designed binder)
chain: QDSTSDLIPAPPLSKVPLQQNFQDNQFHGKWYVVGWAGNTLLREDKDPIKMQAKIYELKEDRSYNVTWVYFADKKCNYHIETFVPGSQPGEFTLGTIKSYPGETPILVRVVSTNYNQHAMVFFKGVNQNREIFEIILYGRTKELTNELKENFIRFSKSLGLPENHIVFPVPIDQCIDGSAWSHPQFEK
notes: biotinylated by NHS chemistry for capture in SPR
B2: lipocalin mutein SEQ ID NO: 27 (designed binder)
chain: B1 chain with K54M, R62K, I136V
notes: as for B1
B3: lipocalin mutein SEQ ID NO: 24 (designed binder)
chain: B1 chain with D73E
notes: as for B1
B4: cysteine-free lipocalin mutein SEQ ID NO: 39 (designed binder)
chain: B1 chain with H28Q, K54M, R62K, C76K, I136V, C175D
notes: as for B1
B5: cysteine-free lipocalin mutein SEQ ID NO: 40 (designed binder)
chain: B1 chain with H28Q, K54M, R62K, C76F, I136V, C175D
notes: as for B1
B6: lipocalin mutein SEQ ID NO: 26 (designed binder)
chain: B1 chain with N77R, Y100H
notes: as for B1
B7: cysteine-free lipocalin mutein SEQ ID NO: 38 (designed binder)
chain: B1 chain with H28Q, K54M, R62K, C76R, I136V, C175V
notes: as for B1
B8: lipocalin mutein SEQ ID NO: 23 (designed binder)
chain: B1 chain with T96L
notes: as for B1
B9: cysteine-free lipocalin mutein SEQ ID NO: 29 (designed binder)
chain: QDSTSDLIPAPPLSKVPLQQNFQDNQFQGKWYVVGRAGNDVLREDKDPEKMEATIYELKEDKSYNVTDVGFVQKRLMYVTHTFVPGSQPGEFTLGNIESYPGVTSALVRVVSTDYNQHAMVFVKLVKQNRELFEITLYGRTKELTSELKENFIRFSKSLGLPENHIVFPVPIDQIDGSAWSHPQFEK
notes: as for B1
B10: cysteine-free lipocalin mutein SEQ ID NO: 30 (designed binder)
chain: B9 chain with L76Y
notes: as for B1
B11: lipocalin mutein SEQ ID NO: 17 (designed binder)
chain: QDSTSDLIPAPPLSKVPLQQNFQDNQFHGKWYVVGRAGNDVLREDKDPEKMEATIYELKEDKSYNVTDVGFVQKRCMYVTHTFVPGSQPGEFTLGNIESYPGVTSALVRVVSTDYNQHAMVFVKLVKQNRELFEITLYGRTKELTSELKENFIRFSKSLGLPENHIVFPVPIDQCIDGSAWSHPQFEK
notes: as for B1
B12: lipocalin mutein SEQ ID NO: 18 (designed binder)
chain: B11 chain with G38A, E44D, K46N, R75K, T80V, E98K, D114N, V123F, I135V
B13: lipocalin mutein SEQ ID NO: 19 (designed binder)
chain: B11 chain with V41T, F71L, R75K, T80I, E98K, D114N, N129S
notes: as for B1
B14: lipocalin mutein SEQ ID NO: 20 (designed binder)
chain: B11 chain with V41T, E44K, R75K, T80I, E98K, D114N
notes: as for B1

Key:
[1] = target: T1, human alpha CGRP (SEQ ID NO: 80) (human, not fully specified); experiment: cell-based or functional assay
T1 peptide: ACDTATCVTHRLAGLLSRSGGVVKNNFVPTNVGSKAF

[2] = target: T2, human beta CGRP (SEQ ID NO: 81) (human, not fully specified); experiment: cell-based or functional assay
T2 peptide: T1 peptide with D3N, V22M, N25S

[3] = target: T3, rat beta CGRP (SEQ ID NO: 83) (rat, not fully specified); experiment: cell-based or functional assay
T3 peptide: T1 peptide with A1S, D3N, N25D

[4] = target: T4, rat alpha CGRP (SEQ ID NO: 82) (rat); experiment: cell-based or functional assay
T4 peptide: T1 peptide with A1S, D3N, N25D, K35E

[5] = target: T1, human alpha CGRP (SEQ ID NO: 80); experiment: SPR, 37 C, mutein captured, CGRP analyte
Protocol: (§1) The Biotin CAPture Kit (GE Healthcare) was used to immobilize biotinylated lipocalin muteins to a chip surface. Muteins were biotinylated using standard NHS chemistry. Undiluted Biotin CAPture Reagent (streptavidin conjugated with ss-DNA oligo) was captured on a Sensor Chip CAP with the pre-immobilized complementary ss-DNA oligo. Thereafter, biotinylated muteins at 1 μg/mL were applied for 300 s at a flow rate of 5 μL/min.
(§2) CGRP species were applied in three concentrations of 30 nM, 3 nM and 0.3 nM at a flow rate of 30 μL/min or in a single concentration of 25 nM per cycle as shown in FIG. 2. The dilutions were injected with association times of 180 s and dissociation times of 5400 sec to obtain ka and kd information. Regeneration of the chip surface was achieved by injecting 6 M Guanidinium-HCl+0.25 M NaOH (120 s) with a flow rate of 10 μL/min. Injection of regeneration solutions was followed by an extra wash step with HBS-EP+(1×; BR-1006-69; GE Healthcare) running buffer and a stabilization period of 120 s.
(§3) The data were double-referenced by subtraction of the corresponding signals measured for the control channel (loaded with Biotin CAPture reagent only) and by subtraction of buffer injections from the binding responses. Association rate constant ka and dissociation rate constant kd for the binding reaction were determined using Biacore T200 Evaluation Software V2.0 for data processing and kinetic fitting. The data were globally fit with 1:1 binding model.

[6] = target: T2, human beta CGRP (SEQ ID NO: 81); experiment: SPR, 37 C, mutein captured, CGRP analyte
Protocol: as §1, §2, §3

[7] = target: T3, rat beta CGRP (SEQ ID NO: 83); experiment: SPR, 37 C, mutein captured, CGRP analyte
Protocol: as §1, §2, §3

[8] = target: T4, rat alpha CGRP (SEQ ID NO: 82); experiment: SPR, 37 C, mutein captured, CGRP analyte
Protocol: as §1, §2, §3

[9] = target: T1, human alpha CGRP (SEQ ID NO: 80); experiment: cell-based or functional assay
[10] = target: T2, human beta CGRP (SEQ ID NO: 81); experiment: cell-based or functional assay
[11] = target: T1, human alpha CGRP (SEQ ID NO: 80); experiment: SPR as in Example 5
Protocol: as §1, §2

[12] = target: T2, human beta CGRP (SEQ ID NO: 81); experiment: SPR as in Example 5
Protocol: as §1, §2

Row | Binder | IC50, CGRP-induced cAMP production, SK-N-MC cells [1] [nM] | IC50, CGRP-induced cAMP production, SK-N-MC cells [2] [nM] | IC50, CGRP-induced cAMP production, L6 cells [3] [nM] | IC50, CGRP-induced cAMP production, L6 cells [4] [nM] | Kd [5] [nM] | koff [5] [s⁻¹] | kon [5] [M⁻¹ s⁻¹] | Kd [6] [pM] | koff [6] [s⁻¹] | kon [6] [M⁻¹ s⁻¹] | Kd [7] [pM] | koff [7] [s⁻¹] | kon [7] [M⁻¹ s⁻¹] | Kd [8] [nM] | koff [8] [s⁻¹] | kon [8] [M⁻¹ s⁻¹] | cAMP assay IC50, SK-N-MC cells [9] [nM] | cAMP assay IC50, SK-N-MC cells [10] [nM] | Kd [11] [nM] | Kd [12] [nM]
1 | B1 | 0.15 | 0.19 | 0.16 | 0.06 | 0.006 | 1.65e-05 | 2.68e+06 | 5 | 1.01e-05 | 2.02e+06 | 8 | 1.33e-05 | 1.64e+06 | 0.016 | 2.12e-05 | 1.3e+06 |  |  |  | 
2 | B2 | 0.1 | 0.12 |  |  | 0.018 | 2.59e-05 | 1.43e+06 | 11 | 2.26e-05 | 2.04e+06 | 18 | 2.64e-05 | 1.5e+06 | 0.038 | 3.1e-05 | 807000 | 0.1 | 0.12 | 0.038 | 0.007
3 | B3 | 0.12 | 0.19 | 0.16 | 0.07 | 0.009 | 1.4e-05 | 1.6e+06 | 4 | 9.01e-06 | 2.52e+06 | 7 | 1.22e-05 | 1.69e+06 | 0.015 | 2.08e-05 | 1.43e+06 |  |  |  | 
4 | B4 |  |  |  |  |  |  |  |  |  |  |  |  |  |  |  |  | 0.21 | 1.03 | 0.062 | 0.034
5 | B5 |  |  |  |  |  |  |  |  |  |  |  |  |  |  |  |  | 0.18 | 0.42 | 0.07 | 0.023
6 | B6 | 0.16 | 0.26 | 0.16 | 0.05 | 0.013 | 1.99e-05 | 1.5e+06 | 3 | 7.6e-06 | 2.44e+06 | 6 | 9.98e-06 | 1.56e+06 | 0.015 | 2.01e-05 | 1.31e+06 |  |  |  | 
7 | B7 |  |  |  |  |  |  |  |  |  |  |  |  |  |  |  |  | 0.21 | 3.16 | 0.059 | 0.026
8 | B8 | 0.18 | 0.2 | 0.17 | 0.07 | 0.011 | 1.84e-05 | 1.64e+06 | 1 | 4.11e-06 | 2.84e+06 | 8 | 1.34e-05 | 1.74e+06 | 0.009 | 1.3e-05 | 1.39e+06 |  |  |  | 
9 | B9 |  |  |  |  |  |  |  |  |  |  |  |  |  |  |  |  | 0.14 | 0.91 | 0.065 | 0.05
10 | B10 |  |  |  |  |  |  |  |  |  |  |  |  |  |  |  |  | 0.22 | 1.32 | 0.109 | 0.075
11 | B11 | 0.11 | 0.23 | 0.11 | 0.06 | 0.011 | 3.66e-05 | 3.34e+06 | 1 | 1.44e-05 | 1.36e+07 | 12 | 5.99e-05 | 5.18e+06 | 0.031 | 8.44e-05 | 2.75e+06 | 0.09 | 0.13 | 0.02 | 0.003
12 | B12 | 0.19 | 0.29 | 0.14 | 0.06 |  |  |  |  |  |  |  |  |  |  |  |  |  |  |  | 
13 | B13 | 0.14 | 0.21 | 0.17 | 0.07 | 0.005 | 1.07e-05 | 2.26e+06 | 1 | 6.67e-06 | 4.56e+06 | 6 | 1.21e-05 | 2.01e+06 | 0.024 | 3.02e-05 | 1.25e+06 |  |  |  | 
14 | B14 | 0.14 | 0.17 | 0.11 | 0.08 | 0.012 | 1.75e-05 | 1.45e+06 | 4 | 7.89e-06 | 2.18e+06 | 13 | 1.84e-05 | 1.38e+06 | 0.028 | 2.41e-05 | 867000 |  |  |  | 
